# Laboratory results as given in the Human Domainome abundance scans (Beltran et al. 2025).
# ± gives the uncertainty stated by the source.
# B1: Transcription intermediary factor 1-beta, residues 620 to 671; numbered along this chain, Q13263 (parent)
# chain: TLDDSATICRVCQKPGDLVMCNQCEFCFHLDCHLPALQDVPGEEWSCSLCHV
# Variants of: B1
# Experiment: abundance fitness (aPCA) (normalised: wild type 0, dead -1); higher = more abundant; growth selection in yeast, the domain comes from the species named
# Conditions: Homo sapiens
row,Variant,abundance fitness
1,G16E,-0.307 ± 0.19
2,G16S,-0.091 ± 0.14
3,G16A,-0.639 ± 0.15
4,G16M,-0.553 ± 0.2
5,G16I,-0.534 ± 0.3
6,G16V,-0.827 ± 0.15
7,G16H,-0.214 ± 0.17
8,G16T,-0.754 ± 0.3
9,G16Y,-0.879 ± 0.41
10,G16Q,-0.477 ± 0.23
11,G16R,-0.389 ± 0.11
12,G16K,-0.258 ± 0.32
13,G16N,0.137 ± 0.26
14,G16F,-0.524 ± 0.31
15,G16C,-1.11 ± 0.23
16,G16L,-0.432 ± 0.12
17,G16P,-0.945 ± 0.28
18,G16D,0.076 ± 0.29
19,G16W,-0.791 ± 0.13
20,V11N,-0.142 ± 0.15
21,V11L,0.009 ± 0.078
22,V11Q,-0.136 ± 0.12
23,V11M,0.059 ± 0.093
24,V11H,-0.659 ± 0.22

row,Variant,abundance fitness
1,V11C,-0.39 ± 0.12
2,V11Y,-0.515 ± 0.17
3,V11K,-0.162 ± 0.11
4,V11G,-0.221 ± 0.1
5,V11W,-0.409 ± 0.1
6,V11R,-0.128 ± 0.088
7,V11I,-0.064 ± 0.11
8,V11E,-0.072 ± 0.12
9,V11A,-0.131 ± 0.081
10,V11P,-0.779 ± 0.14
11,V11S,-0.312 ± 0.084
12,V11D,-0.484 ± 0.21
13,S5T,-0.193 ± 0.13
14,S5C,-0.157 ± 0.23
15,S5E,-0.314 ± 0.1
16,S5N,-0.444 ± 0.36
17,S5I,-0.04 ± 0.17
18,S5V,-0.381 ± 0.093
19,S5R,-0.064 ± 0.077
20,S5P,-0.18 ± 0.14
21,S5G,-0.308 ± 0.076
22,S5Q,-0.215 ± 0.11
23,S5L,-0.596 ± 0.12
24,S5W,-0.307 ± 0.11

row,Variant,abundance fitness
1,S5D,-0.267 ± 0.43
2,S5K,-0.03 ± 0.12
3,S5M,-0.267 ± 0.11
4,S5F,-0.227 ± 0.22
5,L18S,-0.789 ± 0.15
6,L18A,-0.559 ± 0.13
7,L18C,-0.317 ± 0.15
8,L18N,-0.662 ± 0.23
9,L18E,-0.374 ± 0.14
10,L18F,-0.697 ± 0.25
11,L18P,-0.729 ± 0.24
12,L18Q,-0.483 ± 0.3
13,L18I,-0.371 ± 0.15
14,L18G,-0.642 ± 0.12
15,L18K,-0.636 ± 0.23
16,L18W,-0.834 ± 0.17
17,L18H,-0.664 ± 0.4
18,L18R,-0.889 ± 0.13
19,L18M,-0.599 ± 0.25
20,L18T,0.162 ± 0.15
21,L18Y,-0.632 ± 0.24
22,Q23H,-0.486 ± 0.29
23,Q23I,-0.373 ± 0.21
24,Q23T,-0.066 ± 0.17

row,Variant,abundance fitness
1,Q23F,-0.292 ± 0.26
2,Q23M,-0.371 ± 0.16
3,Q23A,-0.395 ± 0.12
4,Q23C,-0.043 ± 0.13
5,Q23Y,-0.336 ± 0.21
6,Q23L,-0.199 ± 0.1
7,Q23V,-0.214 ± 0.1
8,Q23S,-0.089 ± 0.11
9,Q23R,-0.172 ± 0.12
10,Q23K,-0.113 ± 0.21
11,Q23D,-0.234 ± 0.4
12,Q23P,-0.93 ± 0.21
13,Q23W,-0.383 ± 0.13
14,Q23N,-0.014 ± 0.21
15,C9N,-0.469 ± 0.23
16,C9Y,-1 ± 0.21
17,C9G,-0.931 ± 0.11
18,C9P,-0.324 ± 0.11
19,C9K,-0.802 ± 0.42
20,C9T,-0.926 ± 0.23
21,C9I,-0.955 ± 0.3
22,C9A,-0.861 ± 0.15
23,C9M,-0.706 ± 0.32
24,C9R,-1.18 ± 0.2

row,Variant,abundance fitness
1,C9Q,-1.12 ± 0.48
2,C9W,-0.905 ± 0.22
3,C9V,-0.902 ± 0.14
4,C9S,-0.848 ± 0.14
5,M20W,-0.73 ± 0.14
6,M20S,-0.112 ± 0.11
7,M20H,-0.755 ± 0.32
8,M20K,-0.354 ± 0.2
9,M20D,-0.574 ± 0.45
10,M20L,-0.391 ± 0.11
11,M20I,-0.379 ± 0.2
12,M20A,-0.312 ± 0.12
13,M20C,-0.225 ± 0.15
14,M20E,-0.304 ± 0.12
15,M20V,-0.322 ± 0.1
16,M20F,-0.192 ± 0.15
17,M20G,-0.29 ± 0.095
18,M20Y,-0.296 ± 0.19
19,M20N,-0.337 ± 0.17
20,M20R,0.003 ± 0.088
21,M20P,0.067 ± 0.17
22,A6V,-0.35 ± 0.08
23,A6S,-0.223 ± 0.097
24,A6C,-0.973 ± 0.21

row,Variant,abundance fitness
1,A6E,0.25 ± 0.12
2,A6H,-0.303 ± 0.17
3,A6L,-0.202 ± 0.081
4,A6R,-0.275 ± 0.11
5,A6M,-0.069 ± 0.19
6,A6W,-0.86 ± 0.17
7,A6P,-0.234 ± 0.16
8,A6Q,-0.261 ± 0.13
9,A6D,-0.274 ± 0.22
10,K14S,-0.35 ± 0.26
11,K14N,-0.408 ± 0.25
12,K14L,-0.513 ± 0.46
13,K14F,-0.424 ± 0.3
14,I8L,0.03 ± 0.092
15,I8H,-0.123 ± 0.14
16,I8G,-0.418 ± 0.078
17,I8P,-0.302 ± 0.13
18,I8K,-0.107 ± 0.14
19,I8F,0.087 ± 0.22
20,I8Q,0.085 ± 0.15
21,I8Y,0.077 ± 0.12
22,I8M,0.056 ± 0.11
23,I8D,-0.51 ± 0.13
24,I8A,-0.099 ± 0.095

row,Variant,abundance fitness
1,I8V,-0.095 ± 0.081
2,I8C,0.083 ± 0.12
3,I8E,-0.065 ± 0.11
4,I8N,-0.045 ± 0.17
5,I8W,-0.348 ± 0.11
6,R10P,-0.301 ± 0.13
7,R10V,-0.143 ± 0.098
8,R10I,-0.866 ± 0.28
9,R10K,0.206 ± 0.15
10,R10M,-0.113 ± 0.13
11,R10A,-0.327 ± 0.12
12,R10F,-0.271 ± 0.16
13,R10C,-0.363 ± 0.16
14,R10S,0.161 ± 0.13
15,R10D,-0.108 ± 0.17
16,R10N,0.094 ± 0.18
17,R10E,-0.476 ± 0.17
18,R10Y,-0.257 ± 0.22
19,R10W,-0.574 ± 0.14
20,R10H,0.136 ± 0.2
21,R10Q,-0.296 ± 0.13
22,R10G,-0.291 ± 0.1
23,R10T,-0.037 ± 0.13
